Results reported in PMC7863765 (Journal of Molecular Biology, 2021).

Molecular target: the molecule itself
Assay: SEC-MALS

B1: untagged full-length human 14-3-3γ (natural protein, UniProt P61981 1-247, looked up)
chain: MVDREQLVQKARLAEQAERYDDMAAAMKNVTELNEPLSNEERNLLSVAYKNVVGARRSSWRVISSIEQKTSADGNEKKIEMVRAYREKIEKELEAVCQDVLSLLDNYLIKNCSETQYESKVFYLKMKGDYYRYLAEVATGEKRATVVESSEKAYSEAHEISKEHMQPTHPIRLGLALNYSVFYYEIQNAPEQACHLAKTAFDDAIAELDTLNEDSYKDSTLIMQLLRDNLTLWTSDQQDDDGGEGNN
notes: human 14-3-3 protein gamma, full length, untagged
- stoichiometry N: 2
